# Reference: the Human Domainome abundance scans (Beltran et al. 2025)
# ± gives the uncertainty stated by the source.
# B1: Ankyrin-2, residues 3571 to 3650; numbered along this chain, Q01484 (parent)
# chain: ERLAYIADHLGFSWTELARELDFTEEQIHQIRIENPNSLQDQSHALLKYWLERDGKHATDTNLVECLTKINRMDIVHLME
# Variants of: B1
# Test: abundance fitness (aPCA) (normalised: wild type 0, dead -1); higher = more abundant; growth selection in yeast, the domain comes from the species named
# Conditions: Homo sapiens
row,Variant,abundance fitness
1,ERLAYIADHLGFSWTELARELDFTEEQIHQIRIENPNSLQDQSHALLKYWLERDGKHATDTNLVECLYKINRMDIVHLME [T68Y],-0.136 ± 0.17
2,ERLAYIADHLGFSWTELARELDFTEEQIHQIRIENPNSLQDQSHALLKYWLERDGKHATDTNLVECLKKINRMDIVHLME [T68K],-0.044 ± 0.088
3,ERLAYIADHLGFSWTELARELDFTEEQIHQIRIENPNSLQDQSHALLKYWLERDGKHATDTNLVECLPKINRMDIVHLME [T68P],-0.098 ± 0.046
4,ERLAYIADHLGFSWTELARELDFTEEQIHQIRIENPNSLQDQSHALLKYWLERDGKHATDTNLVECLMKINRMDIVHLME [T68M],-0.102 ± 0.095
5,ERLAYIADHLGFSWTELARELDFTEEQIHQIRIENPNSLQDQSHALLKYWLERDGKHATDTNLVECLHKINRMDIVHLME [T68H],0.068 ± 0.13
6,ERLAYIADHLGFSWTELARELDFTEEQIHQIRIENPNSLQDQSHALLKYWLERDGKHATDTNLVECLSKINRMDIVHLME [T68S],-0.147 ± 0.087
7,ERLAYIADHLGFSWTELARELDFTEEQIHQIRIENPNSLQDQSHALLKYWLERDGKHATDTNLVECLEKINRMDIVHLME [T68E],0.047 ± 0.11
8,ERLAYIADHLGFSWTELARELDFTEEQIHQIRIENPNSLQDQSHALLKYWLERDGKHATDTNLVECLVKINRMDIVHLME [T68V],-0.001 ± 0.08
9,ERLAYIADHLGFSWTELARELDFTEEQIHQIRIENPNSLQDQSHALLKYWLERDGKHATDTNLVECLNKINRMDIVHLME [T68N],-0.231 ± 0.15
10,ERLAYIADHLGFSWTELARELDFTEEQIHQIRIENPNSLQDQSHALLKYWLERDGKHATDTNLVECLFKINRMDIVHLME [T68F],0.041 ± 0.15
11,ERLAYIADHLGFSWTELARELDFTEEQIHQIRIENPNSLQDQSHALLKYWLERDGKHATDTNLVECLAKINRMDIVHLME [T68A],-0.057 ± 0.13
12,ERLAYIADHLGFSWTELARELDFTEEQIHQIRIENPNSLQDQSHALLKYWLERDGKHATDTNLVECLGKINRMDIVHLME [T68G],-0.039 ± 0.077
13,ERLAYIADHLGFSWTELARELDFTEEQIHQIRIENPNSLQDQSHALLKYWLERDGKHATDTNLVECLRKINRMDIVHLME [T68R],-0.071 ± 0.051
14,ERLAYIADHLGFSWTELARELDFTEEQIHQIRIENPNSLQDQSHALLKYWLERDGKHATDTNLVECLIKINRMDIVHLME [T68I],-0.122 ± 0.29
15,ERLAYIADHLGFSWTELARELDFTEEQIHQIRIENPNSLQDQSHALLKYWLERDGKHATDTNLVEWLTKINRMDIVHLME [C66W],-0.058 ± 0.064
16,ERLAYIADHLGFSWTELARELDFTEEQIHQIRIENPNSLQDQSHALLKYWLERDGKHATDTNLVEPLTKINRMDIVHLME [C66P],0.065 ± 0.056
17,ERLAYIADHLGFSWTELARELDFTEEQIHQIRIENPNSLQDQSHALLKYWLERDGKHATDTNLVERLTKINRMDIVHLME [C66R],0.001 ± 0.045
18,ERLAYIADHLGFSWTELARELDFTEEQIHQIRIENPNSLQDQSHALLKYWLERDGKHATDTNLVEVLTKINRMDIVHLME [C66V],0.034 ± 0.052
19,ERLAYIADHLGFSWTELARELDFTEEQIHQIRIENPNSLQDQSHALLKYWLERDGKHATDTNLVEMLTKINRMDIVHLME [C66M],0.009 ± 0.099
20,ERLAYIADHLGFSWTELARELDFTEEQIHQIRIENPNSLQDQSHALLKYWLERDGKHATDTNLVEYLTKINRMDIVHLME [C66Y],-0.27 ± 0.11
21,ERLAYIADHLGFSWTELARELDFTEEQIHQIRIENPNSLQDQSHALLKYWLERDGKHATDTNLVELLTKINRMDIVHLME [C66L],-0.126 ± 0.061
22,ERLAYIADHLGFSWTELARELDFTEEQIHQIRIENPNSLQDQSHALLKYWLERDGKHATDTNLVESLTKINRMDIVHLME [C66S],-0.013 ± 0.056
23,ERLAYIADHLGFSWTELARELDFTEEQIHQIRIENPNSLQDQSHALLKYWLERDGKHATDTNLVEQLTKINRMDIVHLME [C66Q],-0.018 ± 0.093

row,Variant,abundance fitness
1,ERLAYIADHLGFSWTELARELDFTEEQIHQIRIENPNSLQDQSHALLKYWLERDGKHATDTNLVETLTKINRMDIVHLME [C66T],-0.078 ± 0.065
2,ERLAYIADHLGFSWTELARELDFTEEQIHQIRIENPNSLQDQSHALLKYWLERDGKHATDTNLVENLTKINRMDIVHLME [C66N],-0.092 ± 0.17
3,ERLAYIADHLGFSWTELARELDFTEEQIHQIRIENPNSLQDQSHALLKYWLERDGKHATDTNLVECLTCINRMDIVHLME [K69C],-0.094 ± 0.1
4,ERLAYIADHLGFSWTELARELDFTEEQIHQIRIENPNSLQDQSHALLKYWLERDGKHATDTNLVECLTSINRMDIVHLME [K69S],-0.049 ± 0.059
5,ERLAYIADHLGFSWTELARELDFTEEQIHQIRIENPNSLQDQSHALLKYWLERDGKHATDTNLVECLTIINRMDIVHLME [K69I],-0.121 ± 0.15
6,ERLAYIADHLGFSWTELARELDFTEEQIHQIRIENPNSLQDQSHALLKYWLERDGKHATDTNLVECLTRINRMDIVHLME [K69R],0.005 ± 0.039
7,ERLAYIADHLGFSWTELARELDFTEEQIHQIRIENPNSLQDQSHALLKYWLERDGKHATDTNLVECLTYINRMDIVHLME [K69Y],-0.017 ± 0.15
8,ERLAYIADHLGFSWTELARELDFTEEQIHQIRIENPNSLQDQSHALLKYWLERDGKHATDTNLVECLTFINRMDIVHLME [K69F],-0.126 ± 0.1
9,ERLAYIADHLGFSWTELARELDFTEEQIHQIRIENPNSLQDQSHALLKYWLERDGKHATDTNLVECLTVINRMDIVHLME [K69V],-0.027 ± 0.044
10,ERLAYIADHLGFSWTELARELDFTEEQIHQIRIENPNSLQDQSHALLKYWLERDGKHATDTNLVECLTPINRMDIVHLME [K69P],-0.545 ± 0.038
11,ERLAYIADHLGFSWTELARELDFTEEQIHQIRIENPNSLQDQSHALLKYWLERDGKHATDTNLVECLTQINRMDIVHLME [K69Q],0 ± 0.066
12,ERLAYIADHLGFSWTELARELDFTEEQIHQIRIENPNSLQDQSHALLKYWLERDGKHATDTNLVECLTLINRMDIVHLME [K69L],-0.059 ± 0.042
13,ERLAYIADHLGFSWTELARELDFTEEQIHQIRIENPNSLQDQSHALLKYWLERDGKHATDTNLVECLTWINRMDIVHLME [K69W],-0.306 ± 0.05
14,ERLAYIADHLGFSWTELARELDFTEEQIHQIRIENPNSLQDQSHALLKYWLERDGKHATDTNLVECLTAINRMDIVHLME [K69A],0.001 ± 0.041
15,ERLAYIADHLGFSWTELARELDFTEEQIHQIRIENPNSLQDQSHALLKYWLERDGKHATDTNLVECLTGINRMDIVHLME [K69G],-0.06 ± 0.041
16,ERLAYIADHLGFSWTELARELDFTEEQIHQIRIENPNSLQDQSHALLKYWLERDGKHATDTNLVECLTEINRMDIVHLME [K69E],-0.054 ± 0.047
17,ERLAYIADHLGFSWTELARELDFTEEQIHQIRIENPNSLQDQSHALLKYWLERDGKHATDTNLVECLTDINRMDIVHLME [K69D],-0.094 ± 0.1
18,ERLAYIADHLGFSWTELARELDFTEEQIHQIRIENPNSLQDQSHALLKYWLERDGKHATDTNLVECLTNINRMDIVHLME [K69N],0.012 ± 0.12
19,ERLAYIADHLGFSWTELARELDFTEEQIHQIRIENPNSLQDQSHALLKYWLERDGKHATDTNLVECLTMINRMDIVHLME [K69M],-0.068 ± 0.069
20,ERLAYIADHLGFSWTELARELDFTEEQIHQIRIENPNSLQDQSHALLKYWLERDGKHATDTNLVECLTTINRMDIVHLME [K69T],-0.032 ± 0.062
21,ERLAYIADHLGFSWTELARELDFTEEQIHQIRIENPNSLQDQSHALLKYWLERDGKHATDTNLVECMTKINRMDIVHLME [L67M],-0.249 ± 0.1
22,ERLAYIADHLGFSWTELARELDFTEEQIHQIRIENPNSLQDQSHALLKYWLERDGKHATDTNLVECITKINRMDIVHLME [L67I],-0.199 ± 0.13
23,ERLAYIADHLGFSWTELARELDFTEEQIHQIRIENPNSLQDQSHALLKYWLERDGKHATDTNLVECHTKINRMDIVHLME [L67H],-0.838 ± 0.5

row,Variant,abundance fitness
1,ERLAYIADHLGFSWTELARELDFTEEQIHQIRIENPNSLQDQSHALLKYWLERDGKHATDTNLVECFTKINRMDIVHLME [L67F],-0.591 ± 0.23
2,ERLAYIADHLGFSWTELARELDFTEEQIHQIRIENPNSLQDQSHALLKYWLERDGKHATDTNLVECPTKINRMDIVHLME [L67P],-0.875 ± 0.16
3,ERLAYIADHLGFSWTELARELDFTEEQIHQIRIENPNSLQDQSHALLKYWLERDGKHATDTNLVECATKINRMDIVHLME [L67A],-0.224 ± 0.094
4,ERLAYIADHLGFSWTELARELDFTEEQIHQIRIENPNSLQDQSHALLKYWLERDGKHATDTNLVECCTKINRMDIVHLME [L67C],-0.153 ± 0.13
5,ERLAYIADHLGFSWTELARELDFTEEQIHQIRIENPNSLQDQSHALLKYWLERDGKHATDTNLVECYTKINRMDIVHLME [L67Y],-0.754 ± 0.39
6,ERLAYIADHLGFSWTELARELDFTEEQIHQIRIENPNSLQDQSHALLKYWLERDGKHATDTNLVECTTKINRMDIVHLME [L67T],-1.16 ± 0.34
7,ERLAYIADHLGFSWTELARELDFTEEQIHQIRIENPNSLQDQSHALLKYWLERDGKHATDTNLVECGTKINRMDIVHLME [L67G],-0.84 ± 0.12
8,ERLAYIADHLGFSWTELARELDFTEEQIHQIRIENPNSLQDQSHALLKYWLERDGKHATDTNLVECRTKINRMDIVHLME [L67R],-1.09 ± 0.13
9,ERLAYIADHLGFSWTELARELDFTEEQIHQIRIENPNSLQDQSHALLKYWLERDGKHATDTNLVECWTKINRMDIVHLME [L67W],-0.832 ± 0.19
10,ERLAYIADHLGFSWTELARELDFTEEQIHQIRIENPNSLQDQSHALLKYWLERDGKHATDTNLVECETKINRMDIVHLME [L67E],-0.643 ± 0.22
11,ERLAYIADHLGFSWTELARELDFTEEQIHQIRIENPNSLQDQSHALLKYWLERDGKHATDTNLVECLTKGNRMDIVHLME [I70G],-0.663 ± 0.068
12,ERLAYIADHLGFSWTELARELDFTEEQIHQIRIENPNSLQDQSHALLKYWLERDGKHATDTNLVECLTKMNRMDIVHLME [I70M],-0.002 ± 0.16
13,ERLAYIADHLGFSWTELARELDFTEEQIHQIRIENPNSLQDQSHALLKYWLERDGKHATDTNLVECLTKLNRMDIVHLME [I70L],-0.065 ± 0.044
14,ERLAYIADHLGFSWTELARELDFTEEQIHQIRIENPNSLQDQSHALLKYWLERDGKHATDTNLVECLTKKNRMDIVHLME [I70K],-0.784 ± 0.49
15,ERLAYIADHLGFSWTELARELDFTEEQIHQIRIENPNSLQDQSHALLKYWLERDGKHATDTNLVECLTKRNRMDIVHLME [I70R],-0.551 ± 0.064
16,ERLAYIADHLGFSWTELARELDFTEEQIHQIRIENPNSLQDQSHALLKYWLERDGKHATDTNLVECLTKPNRMDIVHLME [I70P],-1.06 ± 0.13
17,ERLAYIADHLGFSWTELARELDFTEEQIHQIRIENPNSLQDQSHALLKYWLERDGKHATDTNLVECLTKHNRMDIVHLME [I70H],-0.334 ± 0.17
18,ERLAYIADHLGFSWTELARELDFTEEQIHQIRIENPNSLQDQSHALLKYWLERDGKHATDTNLVECLTKDNRMDIVHLME [I70D],-0.533 ± 0.12
19,ERLAYIADHLGFSWTELARELDFTEEQIHQIRIENPNSLQDQSHALLKYWLERDGKHATDTNLVECLTKQNRMDIVHLME [I70Q],-0.382 ± 0.18
20,ERLAYIADHLGFSWTELARELDFTEEQIHQIRIENPNSLQDQSHALLKYWLERDGKHATDTNLVECLTKANRMDIVHLME [I70A],-0.099 ± 0.07
21,ERLAYIADHLGFSWTELARELDFTEEQIHQIRIENPNSLQDQSHALLKYWLERDGKHATDTNLVECLTKNNRMDIVHLME [I70N],-0.693 ± 0.26
22,ERLAYIADHLGFSWTELARELDFTEEQIHQIRIENPNSLQDQSHALLKYWLERDGKHATDTNLVECLTKCNRMDIVHLME [I70C],-0.113 ± 0.075
23,ERLAYIADHLGFSWTELARELDFTEEQIHQIRIENPNSLQDQSHALLKYWLERDGKHATDTNLVECLTKENRMDIVHLME [I70E],-0.305 ± 0.12
